Measurements as given in US20210346432A1 (Memorial Sloan Kettering, published 2021).
Each block holds one binder with its values, some of them ahead of it. No end group written: not given here. *: point of attachment. Biotin = O=C1N[C@H]2[C@H](CS[C@H]2CCCCC(=O)*)N1

Key:
[1] = target: T1, ET140-p2 (human); assay: peptide ELISA on streptavidin plate
T1 construct: also called peptide 2
T1 peptide: Biotin-SGSGQMAGQCSQNEYFDSL
Protocol: (§1) The peptides were coated onto Streptavidin plates at 2 ug/mL in PBST (PBS+0.05% Tween-20). After washing and blocking with 3% BSA. […] “mIgG1” used in all Examples represents that the variable region is fully human and the Fc part is mouse IgG1. Then HRP anti-mouse IgG detection antibody was added to each well. Finally, the color was developed using TMB substrate. A450 was recorded for data analysis.

[2] = target: T2, ET140-p15 (human, cysteine pairing not given here); assay: peptide ELISA on streptavidin plate
T2 construct: also called peptide 15
T2 peptide: Biotin-SGSGSLLHACIPCQLRCSS
Protocol: as §1

[3] = target: T3, ET140-p17 (human, cysteine pairing not given here); assay: peptide ELISA on streptavidin plate
T3 construct: also called peptide 17
T3 peptide: Biotin-SGSGLHACIPCQLRCSSNT
Protocol: as §1

[4] = target: T4, ET140-p19 (human, cysteine pairing not given here); assay: peptide ELISA on streptavidin plate
T4 construct: also called peptide 19
T4 peptide: Biotin-SGSGACIPCQLRCSSNTPP
Protocol: as §1

[5] = target: T5, ET140-p23 (human, cysteine pairing not given here); assay: peptide ELISA on streptavidin plate
T5 construct: also called peptide 23
T5 peptide: Biotin-SGSGCQLRCSSNTPPLTCQ
Protocol: as §1

[6] = target: T6, ET140-p33 (human, cysteine pairing not given here); assay: peptide ELISA on streptavidin plate
T6 construct: also called peptide 33
T6 peptide: Biotin-SGSGPLTCQRYCNASVTNS
Protocol: as §1

[7] = target: T7, ET140-p36 (human, cysteine pairing not given here); assay: peptide ELISA on streptavidin plate
T7 construct: also called peptide 36
T7 peptide: Biotin-SGSGCQRYCNASVTNSVKG
Protocol: as §1

[8] = target: T8, ET140-p1 (human); assay: peptide ELISA, biotin peptide on streptavidin plate
T8 construct: also called peptide 1; ET140-pl
T8 peptide: Biotin-SGSGLQMAGQCSQNEYFDS
Protocol: as §1

[9] = target: T9, ET140-p5 (human); assay: as above
T9 construct: also called peptide 5
T9 peptide: Biotin-SGSGGQCSQNEYFDSLLHA
Protocol: as §1

[10] = target: T10, ET140-p6 (human, cysteine pairing not given here); assay: as above
T10 construct: also called peptide 6
T10 peptide: Biotin-SGSGQCSQNEYFDSLLHAC
Protocol: as §1

[11] = target: T11, ET140-p7 (human, cysteine pairing not given here); assay: as above
T11 construct: also called peptide 7
T11 peptide: Biotin-SGSGCSQNEYFDSLLHACI
Protocol: as §1

[12] = target: T12, ET140-p8 (human); assay: as above
T12 construct: also called peptide 8
T12 peptide: Biotin-SGSGSQNEYFDSLLHACIP
Protocol: as §1

[13] = target: T13, ET140-p9 (human, cysteine pairing not given here); assay: as above
T13 construct: also called peptide 9
T13 peptide: Biotin-SGSGQNEYFDSLLHACIPC
Protocol: as §1

[14] = target: T14, ET140-p12 (human, cysteine pairing not given here); assay: as above
T14 construct: also called peptide 12
T14 peptide: Biotin-SGSGYFDSLLHACIPCQLR
Protocol: as §1

[15] = target: T15, ET140-p13 (human, cysteine pairing not given here); assay: as above
T15 construct: also called peptide 13
T15 peptide: Biotin-SGSGFDSLLHACIPCQLRC
Protocol: as §1

[16] = target: T16, ET140-p14 (human, cysteine pairing not given here); assay: as above
T16 construct: also called peptide 14
T16 peptide: Biotin-SGSGDSLLHACIPCQLRCS
Protocol: as §1

[17] = target: T2, ET140-p15; assay: as above
Protocol: as §1

[18] = target: T3, ET140-p17; assay: as above
Protocol: as §1

[19] = target: T17, ET140-p18 (human, cysteine pairing not given here); assay: as above
T17 construct: also called peptide 18
T17 peptide: Biotin-SGSGHACIPCQLRCSSNTP
Protocol: as §1

[20] = target: T4, ET140-p19; assay: as above
Protocol: as §1

[21] = target: T18, ET140-p21 (human, cysteine pairing not given here); assay: as above
T18 construct: also called peptide 21
T18 peptide: Biotin-SGSGIPCQLRCSSNTPPLT
Protocol: as §1

[22] = target: T19, ET140-p22 (human, cysteine pairing not given here); assay: as above
T19 construct: also called peptide 22
T19 peptide: Biotin-SGSGPCQLRCSSNTPPLTC
Protocol: as §1

[23] = target: T20, ET140-p24 (human, cysteine pairing not given here); assay: as above
T20 construct: also called peptide 24
T20 peptide: Biotin-SGSGQLRCSSNTPPLTCQR
Protocol: as §1

[24] = target: T21, ET140-p25 (human, cysteine pairing not given here); assay: as above
T21 construct: also called peptide 25
T21 peptide: Biotin-SGSGLRCSSNTPPLTCQRY
Protocol: as §1

[25] = target: T22, ET140-p27 (human, cysteine pairing not given here); assay: as above
T22 construct: also called peptide 27
T22 peptide: Biotin-SGSGCSSNTPPLTCQRYCN
Protocol: as §1

[26] = target: T23, ET140-p28 (human, cysteine pairing not given here); assay: as above
T23 construct: also called peptide 28
T23 peptide: Biotin-SGSGSSNTPPLTCQRYCNA
Protocol: as §1

[27] = target: T24, ET140-p29 (human, cysteine pairing not given here); assay: as above
T24 construct: also called peptide 29
T24 peptide: Biotin-SGSGSNTPPLTCQRYCNAS
Protocol: as §1

[28] = target: T25, ET140-p31 (human, cysteine pairing not given here); assay: as above
T25 construct: also called peptide 31
T25 peptide: Biotin-SGSGTPPLTCQRYCNASVT
Protocol: as §1

[29] = target: T26, ET140-p37 (human); assay: as above
T26 construct: also called peptide 37
T26 peptide: Biotin-SGSGQRYCNASVTNSVKGT
Protocol: as §1

[30] = target: T27, ET140-p39 (human); assay: as above
T27 construct: also called peptide 39
T27 peptide: Biotin-SGSGYCNASVTNSVKGTNA
Protocol: as §1

[31] = target: T21, ET140-p25; assay: peptide ELISA on streptavidin plate, antibody 1 ug/mL
Protocol: as §1

[32] = target: T28, ET140-p26 (human, cysteine pairing not given here); assay: as above
T28 construct: also called peptide 26
T28 peptide: Biotin-SGSGRCSSNTPPLTCQRYC
Protocol: as §1

binding result [1]: no binding (tested: 1 ug/mL)
binding result [2]: no binding (tested: 1 ug/mL)
binding result [3]: no binding (tested: 1 ug/mL)
binding result [4]: no binding (tested: 1 ug/mL)
binding result [5]: no binding (tested: 1 ug/mL)
binding result [6]: no binding (tested: 1 ug/mL)
binding result [7]: no binding (tested: 1 ug/mL)
B1: ET140-153 mIgG1 (antibody, V domains shown)
VH: QVQLVQSGAEVKKPGSSVKVSCKASGGTFSSYAISWVRQAPGQGLEWMGRIIPILGIANYAQKFQGRVTITADKSTSTAYMELSSLRSEDTAVYYCARGGYYSHDMWSEDWGQGTLVTVSS
VL: LPVLTQPPSASGTPGQRVTISCSGRSSNIGSNSVNWYRQLPGAAPKLLIYSNNQRPPGVPVRFSGSKSGTSASLAISGLQSEDEATYYCATWDDNLNVHYVFGTGTKVTVLG
notes: also called ET140-3 mIgG1; ET140-3

binding result [8]: no binding (tested: 1 ug/mL)
binding result [9]: no binding (tested: 1 ug/mL)
binding result [10]: no binding (tested: 1 ug/mL)
binding result [11]: no binding (tested: 1 ug/mL)
binding result [12]: no binding (tested: 1 ug/mL)
binding result [13]: no binding (tested: 1 ug/mL)
binding result [14]: no binding (tested: 1 ug/mL)
binding result [15]: no binding (tested: 1 ug/mL)
binding result [16]: no binding (tested: 1 ug/mL)
binding result [17]: no binding (tested: 1 ug/mL)
binding result [18]: no binding (tested: 1 ug/mL)
binding result [19]: no binding (tested: 1 ug/mL)
binding result [20]: no binding (tested: 1 ug/mL)
binding result [21]: no binding (tested: 1 ug/mL)
binding result [22]: no binding (tested: 1 ug/mL)
binding result [23]: no binding (tested: 1 ug/mL)
binding result [24]: no binding (tested: 1 ug/mL)
binding result [25]: no binding (tested: 1 ug/mL)
binding result [26]: no binding (tested: 1 ug/mL)
binding result [27]: no binding (tested: 1 ug/mL)
binding result [28]: no binding (tested: 1 ug/mL)
binding result [29]: no binding (tested: 1 ug/mL)
binding result [30]: no binding (tested: 1 ug/mL)
A450 [31]: 0.494
A450 [32]: 0.2
B2: ET140-204 mIgG1 (antibody, V domains shown)
VH: EVQLVQSGAEMKKPGASLKLSCKASGYTFIDYYVYWMRQAPGQGLESMGWINPNSGGTNYAQKFQGRVTMTRDTSISTAYMELSRLRSDDTAMYYCARSQRDGYMDYWGQGTLVTVSS
VL: QSALTQPASVSASPGQSIAISCTGTSSDVGWYQQHPGKAPKLMIYEDSKRPSGVSNRFSGSKSGNTASLTISGLQAEDEADYYCSSNTRSSTLVFGGGTKLTVLG
notes: also called ET140-54 mIgG1; ET140-54

binding result [8]: no binding (tested: 1 ug/mL)
binding result [9]: no binding (tested: 1 ug/mL)
binding result [10]: no binding (tested: 1 ug/mL)
binding result [11]: no binding (tested: 1 ug/mL)
binding result [12]: no binding (tested: 1 ug/mL)
binding result [13]: no binding (tested: 1 ug/mL)
binding result [14]: no binding (tested: 1 ug/mL)
binding result [15]: no binding (tested: 1 ug/mL)
binding result [16]: no binding (tested: 1 ug/mL)
binding result [17]: no binding (tested: 1 ug/mL)
binding result [18]: no binding (tested: 1 ug/mL)
binding result [19]: no binding (tested: 1 ug/mL)
binding result [20]: no binding (tested: 1 ug/mL)
binding result [21]: no binding (tested: 1 ug/mL)
binding result [22]: no binding (tested: 1 ug/mL)
binding result [23]: no binding (tested: 1 ug/mL)
binding result [24]: no binding (tested: 1 ug/mL)
binding result [25]: no binding (tested: 1 ug/mL)
binding result [26]: no binding (tested: 1 ug/mL)
binding result [27]: no binding (tested: 1 ug/mL)
binding result [28]: no binding (tested: 1 ug/mL)
binding result [29]: no binding (tested: 1 ug/mL)
binding result [30]: no binding (tested: 1 ug/mL)
A450 [31]: 0.537
A450 [32]: 0.212
B3: ET140-174 mIgG1 (antibody, V domains shown)
VH: EVQLVQSGAEVKKPGESLKISCKGSGYSFTSYWIGWVRQMPGKGLEWMGIIYPGDSDTRYSPSFQGHVTISADKSISTAYLQWSSLKASDTAMYYCARYSGSFDNWGQGTLVTVSS
VL: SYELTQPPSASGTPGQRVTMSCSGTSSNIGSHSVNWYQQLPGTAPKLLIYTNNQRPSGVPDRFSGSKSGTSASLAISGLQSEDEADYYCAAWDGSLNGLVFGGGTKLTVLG
notes: also called ET140-24 mIgG1; ET140-24
